# Assay results: paper PMC4242682, “The Cpn10(1) Co-Chaperonin of A. thaliana Functions Only as a Hetero-Oligomer with Cpn20” (PLoS ONE, 2014)
# Residue numbers refer to the chain shown, from its start.
# T1: Cpn20 mutant G32A (A. thaliana, UniProt O65282 51-253, G32A)
# T1 sequence (looked up): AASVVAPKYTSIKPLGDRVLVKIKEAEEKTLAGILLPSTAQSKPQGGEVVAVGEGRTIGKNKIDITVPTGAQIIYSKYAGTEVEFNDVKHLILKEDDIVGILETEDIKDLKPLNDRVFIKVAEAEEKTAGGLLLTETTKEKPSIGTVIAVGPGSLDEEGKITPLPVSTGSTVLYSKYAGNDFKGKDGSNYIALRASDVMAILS
# B1: GroES (natural protein, E. coli, UniProt P0A6F9 1-97, looked up)
# chain: MNIRPLHDRVIVKRKEVETKSAGGIVLTGSAAAKSTRGEVLAVGNGRILENGEVKPLDVKVGDIVIFNDGYGVKSEKIDNEEVLIMSESDILAIVEA
# notes: GroES, the co-chaperonin (Cpn10) of E. coli
# B2: Cpn60α2 (natural protein)
# chain: not shown
# notes: additional glycine-serine at the N-terminus; Cpn60α2, A. thaliana chloroplast chaperonin α subunit, At2g28000; alanine 46 chosen as the first amino acid of the mature protein; The vector codes for an octa-histidine tag followed by a TEV site
# B3: Cpn10(2) co-chaperonin of A. thaliana (natural protein, UniProt O80504 40-139, looked up)
# chain: IKAISTKWEPTKVVPQADRVLVRLEDLPIKSSGGVLLPKAAVKFERYLTGEIISVGSEVGQQVGPGKRVLFSDVSAYEVDLGTDARHCFCKESDLLALVE
# notes: Cpn10(2), A. thaliana chloroplast co-chaperonin, At2g44650
# B4: Cpn10(1) co-chaperonin of A. thaliana, lacking the N-terminal chloroplast transit peptide (natural protein, UniProt Q9M1C2 43-138, looked up)
# chain: STKWEPAKVVPQADRVLVRLEVLPEKSSGGVLLPKSAVKFERYLTGEVVSVGSEVGEVEPGKKVLFSDMSAYEVDFGTEDAKHCFCKESDLLAIVQ
# notes: Cpn10(1), A. thaliana chloroplast co-chaperonin, At3g60210, without the transit peptide; Serine 43 chosen as the first amino acid; Cloned between XhoI and NdeI of pET22b+; source: E. coli BL21(T7+), pET22b+, purified (Mono-Q, Superdex 200, Superdex 75)
# B5: Cpn20 co-chaperonin of A. thaliana (natural protein, UniProt O65282 51-253, looked up)
# chain: T1 sequence (looked up) with A32G
# notes: Cpn20, A. thaliana chloroplast co-chaperonin of two Cpn10-like domains joined head-to-tail, At5g20720
# Tests used:
# [1] = biological target: the molecule itself; test: cross-linking; 45 µM co-chaperonin with 1 mM DSS at room temperature, 50 mM Na-HEPES pH 7.5, 10 mM MgCl2, 100 mM KCl; time course; SDS gradient gel, Coomassie
# Cpn60β3 = biological target: T2, Cpn60β3 (A. thaliana, UniProt P21240 55-600); test: SEC; reconstitution of 150 µM Cpn60α2 and 100 µM Cpn60β3 with 50 µM mt-cpn10, 5 mM ATP, 50 mM Tris-HCl pH 8, 300 mM NaCl, 10 mM MgCl2, 16 mM KCl, 2 mM DTT, 1 h 30°C; oligomers separated from monomers on Superdex 200 at room temperature; settings: both partners purified
# T2 construct: Cpn60β3, A. thaliana chloroplast chaperonin β subunit, At1g55490
# T2 sequence (P21240 55-600): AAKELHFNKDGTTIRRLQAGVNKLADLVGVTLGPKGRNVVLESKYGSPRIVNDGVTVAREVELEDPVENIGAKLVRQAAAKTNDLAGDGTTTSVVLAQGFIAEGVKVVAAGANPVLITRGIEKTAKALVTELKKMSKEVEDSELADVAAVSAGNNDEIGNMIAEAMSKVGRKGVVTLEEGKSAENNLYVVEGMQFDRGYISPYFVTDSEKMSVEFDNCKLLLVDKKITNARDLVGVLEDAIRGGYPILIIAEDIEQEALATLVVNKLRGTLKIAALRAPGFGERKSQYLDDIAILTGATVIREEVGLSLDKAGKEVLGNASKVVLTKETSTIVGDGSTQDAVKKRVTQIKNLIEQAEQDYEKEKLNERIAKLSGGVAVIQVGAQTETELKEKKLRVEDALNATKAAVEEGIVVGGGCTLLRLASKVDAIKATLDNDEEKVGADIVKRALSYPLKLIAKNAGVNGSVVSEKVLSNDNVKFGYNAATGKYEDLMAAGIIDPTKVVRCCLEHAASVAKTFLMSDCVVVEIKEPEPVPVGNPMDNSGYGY
# Cpn20 mutant G32A = biological target: T1, Cpn20 mutant G32A; test: cell-based or functional assay
# [2] = biological target: B5; test: cell-based or functional assay
# [3] = biological target: the molecule itself; test: native gel or EMSA; co-chaperonins at 100 µM (protomer) mixed at various ratios, 5 min at room temperature, 6% native acrylamide gel; no Cpn60 or ATP
binder,measurement,setting,value
B1,stoichiometry N,[1],7
B2,binding result,Cpn60β3,binds
B3,stoichiometry N,[1],7
same,"refolding of urea-denatured MDH by Cpn60αβ, Cpn10(2) titrated on a background of 20 µM G32A; at a 0.25 ratio of [co-chaperonin]/[Cpn60αβ], against 18.06% with Cpn10(2) alone",Cpn20 mutant G32A,29.1%
B4,stoichiometry N,[1],2
same,"refolding of urea-denatured MDH by GroEL with the combination of G32A and Cpn10(1), each inactive alone (% of GroEL with saturating GroES)",Cpn20 mutant G32A,~75%
same,"refolding of urea-denatured MDH by chloroplast Cpn60αβ with the combination of G32A and Cpn10(1), each inactive alone (% of Cpn60αβ with mt-cpn10)",Cpn20 mutant G32A,~40%
same,"refolding of urea-denatured MDH by 10 µM Cpn60αβ, Cpn20 titrated (0.625–20 µM) with constant 20 µM Cpn10(1); against 51.39% with Cpn20 alone (% of Cpn60αβ with mt-cpn10)",[2],77.8%
B5,binding result,[3],binds
